Reference: paper PMC10848371
Where two headings read alike, the source gives them in different places.

PD-1 (programmed cell death protein 1): 3NQ (N49Q, N58Q, N74Q)
decreases: localisation_or_trafficking (N-glycosylation at N49) | stability_or_folding (N-glycosylation at N49) | localisation_or_trafficking (N-glycosylation at N58) | stability_or_folding (N-glycosylation at N58) | localisation_or_trafficking (N-glycosylation at N74) | stability_or_folding (N-glycosylation at N74)
